Laboratory results from IntAct's records for PubMed 28202711.

What was measured:
1433g_human YWHAG [1] = target: 1433g_human YWHAG (UniProt P61981)
1433g_human YWHAG [2] = target: 1433g_human YWHAG (UniProt P61981); remark: listed apart in the source

Chain of UniProt P61981 (P61981 whole entry): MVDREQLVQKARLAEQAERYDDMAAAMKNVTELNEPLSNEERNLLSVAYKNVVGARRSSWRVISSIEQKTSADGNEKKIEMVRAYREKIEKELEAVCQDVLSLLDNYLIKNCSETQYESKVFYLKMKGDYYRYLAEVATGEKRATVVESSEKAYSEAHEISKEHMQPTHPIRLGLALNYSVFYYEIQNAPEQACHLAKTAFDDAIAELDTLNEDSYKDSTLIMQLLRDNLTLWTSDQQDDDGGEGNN

effect of a mutation on the interaction (1433g_human YWHAG [1])	effect of a mutation on the interaction (1433g_human YWHAG [2])	Substance
with no effect	decreasing interaction strength	Leucine-rich repeat serine/threonine-protein kinase 2 (Homo sapiens), Q5S007 R1441G
	decreasing interaction strength	Leucine-rich repeat serine/threonine-protein kinase 2 (Homo sapiens), Q5S007 R1441H
	decreasing interaction strength	Leucine-rich repeat serine/threonine-protein kinase 2 (Homo sapiens), Q5S007 R1441C
